Results on five molecules are retold here after patent US20180155406A1 (Sanofi, published 2018).

Holding throughout (test): cell-based or functional assay
The target in assay [1] is human GLP-1 receptor (human) (UniProt P43220).
Assay [2] has as its target human glucagon receptor (human) (UniProt P47871).
Assay [3] concerns the target T1, human glucagon receptor (human, UniProt P47871 26-477).
The target of a further assay is human GLP-1 receptor (human, UniProt P43220 24-463).
The target of assay [4] is T1, human glucagon receptor. This is another data set of the same source.
Another assay deals with T2, human GIP receptor (human, UniProt P48546 22-466).
T2 sequence (looked up): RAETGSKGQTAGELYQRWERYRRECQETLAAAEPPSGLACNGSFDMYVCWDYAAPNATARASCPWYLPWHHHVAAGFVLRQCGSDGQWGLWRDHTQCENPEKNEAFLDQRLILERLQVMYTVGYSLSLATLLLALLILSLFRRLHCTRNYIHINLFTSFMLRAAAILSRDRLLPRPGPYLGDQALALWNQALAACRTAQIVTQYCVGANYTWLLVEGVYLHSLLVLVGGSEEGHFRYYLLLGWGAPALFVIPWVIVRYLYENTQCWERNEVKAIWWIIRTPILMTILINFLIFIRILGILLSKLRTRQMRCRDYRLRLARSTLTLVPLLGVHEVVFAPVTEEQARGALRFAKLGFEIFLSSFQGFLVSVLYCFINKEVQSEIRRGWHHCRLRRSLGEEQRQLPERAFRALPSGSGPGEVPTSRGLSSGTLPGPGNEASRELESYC

Numbered stars: 1 amine (or outer) side, 2 acyl side, 3 side chain; on linkers, the order of the positions; unused ones are H or OH. Square brackets hold non-standard residues; d marks the D form. Side chains are listed from the residue outwards. Ends that are not written are not given here. * marks the point of attachment. γGlu = O=C(O)[C@H](CCC(=O)[*:2])N[*:1]; Stearoyl = CCCCCCCCCCCCCCCCCC(=O)*; Palmitoyl = CCCCCCCCCCCCCCCC(=O)*; gAAA = not defined here; AEEA = NCCOCCOCC(=O)O; Aib = CC(C)(N)C(=O)O

T1 sequence (P47871 26-477): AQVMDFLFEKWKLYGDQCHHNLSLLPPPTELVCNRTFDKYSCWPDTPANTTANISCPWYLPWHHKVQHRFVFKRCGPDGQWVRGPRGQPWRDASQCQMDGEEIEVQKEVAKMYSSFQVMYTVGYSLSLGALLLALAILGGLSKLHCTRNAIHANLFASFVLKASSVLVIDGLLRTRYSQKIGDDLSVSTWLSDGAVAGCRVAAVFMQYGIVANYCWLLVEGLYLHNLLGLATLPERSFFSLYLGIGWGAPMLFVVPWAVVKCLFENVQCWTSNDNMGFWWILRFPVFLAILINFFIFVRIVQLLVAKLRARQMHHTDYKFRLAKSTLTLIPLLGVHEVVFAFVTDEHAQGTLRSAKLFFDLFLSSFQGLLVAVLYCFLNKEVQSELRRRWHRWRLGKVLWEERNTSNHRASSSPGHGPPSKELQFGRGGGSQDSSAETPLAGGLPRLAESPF
human GLP-1 receptor (human), sequence (P43220 24-463): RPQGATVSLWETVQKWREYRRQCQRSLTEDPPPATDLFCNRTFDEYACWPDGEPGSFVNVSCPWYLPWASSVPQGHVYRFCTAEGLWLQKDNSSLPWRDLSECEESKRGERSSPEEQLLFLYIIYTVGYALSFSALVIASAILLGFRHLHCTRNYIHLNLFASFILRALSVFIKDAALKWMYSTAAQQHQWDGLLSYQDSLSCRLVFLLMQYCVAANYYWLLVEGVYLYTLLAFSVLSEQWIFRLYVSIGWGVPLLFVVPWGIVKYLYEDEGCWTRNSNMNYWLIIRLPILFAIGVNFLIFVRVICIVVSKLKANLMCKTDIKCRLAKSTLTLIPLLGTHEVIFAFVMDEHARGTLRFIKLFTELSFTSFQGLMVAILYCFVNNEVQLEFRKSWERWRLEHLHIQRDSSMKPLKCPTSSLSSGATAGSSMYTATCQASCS
human glucagon receptor (human), sequence (P47871 26-477): as the sequence (P47871 26-477) above

The molecule exendin-4 (peptide) gave an EC50 hGLP-1 R [pM] (cAMP formation) in assay [1] of 0.4 pM. Further, in assay [2], the EC50 hGlucagon R [pM] (cAMP formation) is more than 1e+07 pM.

B1: SEQ ID NO: 28 (peptide)
peptide: HXQGTFTSDLSKQKDEQRAKEFIEWLKAGGPSSGAPPPS
modifications: Aib at 2; Lys14 side chain acylated with gGlu-Stea; C-terminal amide
As to B1, in the assay with human glucagon receptor [3], the “EC50 hGlucagon-R” value is 1.9 pM.

B2: SEQ ID NO: 22 (peptide)
peptide: H[Aib]HGTFTSDLSKLK([γGlu-AEEA-gAAA-Palmitoyl])EEQRQKEFIEWLKAGGHPS[Aib]KPPPK-NH2
modifications: reading uncertain
Take B2: the “EC50 hGLP-1R (cAMP formation)” value in the assay with human GLP-1 receptor was found to be 1 pM. In addition, the “EC50 hGlucagon R (cAMP formation)” value with human glucagon receptor [4] was 5.9 pM. Further, the “EC50 hGIP R (cAMP formation)” value with human GIP receptor was 1.1 pM.

B3: SEQ ID NO: 21 (peptide)
peptide: H[Aib]HGTFTSDLSKLK([γGlu-Stearoyl])EEQRQKEFIEWLKAGGPPS[Aib]KPPPK-NH2
modifications: N-terminus assumed
SMILES: CCCCCCCCCCCCCCCCCC(=O)N[C@@H](CCC(=O)NCCCC[C@H](NC(=O)[C@H](CC(C)C)NC(=O)[C@H](CCCCN)NC(=O)[C@H](CO)NC(=O)[C@H](CC(C)C)NC(=O)[C@H](CC(=O)O)NC(=O)[C@H](CO)NC(=O)[C@@H](NC(=O)[C@H](Cc1ccccc1)NC(=O)[C@@H](NC(=O)CNC(=O)[C@H](Cc1c[nH]cn1)NC(=O)C(C)(C)NC(=O)[C@@H](N)Cc1c[nH]cn1)[C@@H](C)O)[C@@H](C)O)C(=O)N[C@@H](CCC(=O)O)C(=O)N[C@@H](CCC(=O)O)C(=O)N[C@@H](CCC(N)=O)C(=O)N[C@@H](CCCNC(=N)N)C(=O)N[C@@H](CCC(N)=O)C(=O)N[C@@H](CCCCN)C(=O)N[C@@H](CCC(=O)O)C(=O)N[C@@H](Cc1ccccc1)C(=O)N[C@H](C(=O)N[C@@H](CCC(=O)O)C(=O)N[C@@H](Cc1c[nH]c2ccccc12)C(=O)N[C@@H](CC(C)C)C(=O)N[C@@H](CCCCN)C(=O)N[C@@H](C)C(=O)NCC(=O)NCC(=O)N1CCC[C@H]1C(=O)N1CCC[C@H]1C(=O)N[C@@H](CO)C(=O)NC(C)(C)C(=O)N[C@@H](CCCCN)C(=O)N1CCC[C@H]1C(=O)N1CCC[C@H]1C(=O)N1CCC[C@H]1C(=O)N[C@@H](CCCCN)C(N)=O)[C@@H](C)CC)C(=O)O
Consider B3, for which, in the assay with human GLP-1 receptor, the “EC50 hGLP-1R (cAMP formation)” value is 3.4 pM. Also, in the assay with human glucagon receptor [4], the “EC50 hGlucagon R (cAMP formation)” value was determined as 1.9 pM. For the same molecule, the “EC50 hGIP R (cAMP formation)” value with human GIP receptor stood at 2.6 pM.

B4: SEQ ID NO: 23 (peptide)
peptide: H[Aib]HGTFTSDLSKLK([γGlu-AEEA-gAAA-Palmitoyl])EEQRQKEFIEWLKA[dA]GHPS[Aib]KPPPK-NH2
modifications: reading uncertain
With B4, the “EC50 hGLP-1R (cAMP formation)” value with human GLP-1 receptor came out at 1.4 pM. In the assay with human glucagon receptor [4], the “EC50 hGlucagon R (cAMP formation)” value came to 6.8 pM. Further, the “EC50 hGIP R (cAMP formation)” value with human GIP receptor was 1.5 pM.
